Results from the supplement of paper PMC7125110.
± gives the standard error. For some assays here: Variants at the floor of the assay were thinned out.

B1: glmS ribozyme (parent)
chain: AUAAAAGCGCCAGAACUACAGAAAUGUAGUUGACGAGGAGGAGGUUUAUCGAAUUUUCGGCGGAUGCCUCCAAA

Tests used:
Conditions in all cases: with glucosamine-6-phosphate
glucosamine-6-phosphate [1] = variants of: B1; experiment: kcat; higher = faster cleavage; RNA array
Method in brief: (§1)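 Weighted Michaelis–Menten fits across concentrations supplied kcat and KM, based on kobs from one- or two-exponential decay fits to normalised per-tile medians. The data came from barcoded ribozyme variants transcribed in situ by E. coli RNA polymerase on sequenced MiSeq chips and tracked at 37 °C by a hybridised Cy3 probe. Glucosamine-6-phosphate (40 μM to 10 mM) in HEPES/KCl/Mg(OAc)2 buffer was flowed in.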

glucosamine-6-phosphate [2] = variants of: B1; experiment: self-cleavage kobs at 160 uM GlcN6P; higher = faster cleavage; RNA array
Method in brief: as §1

glucosamine-6-phosphate [3] = variants of: B1; experiment: self-cleavage kobs at 640 uM GlcN6P; higher = faster cleavage; RNA array
Method in brief: as §1

glucosamine-6-phosphate [4] = variants of: B1; experiment: self-cleavage kobs at 2500 uM GlcN6P; higher = faster cleavage; RNA array
Method in brief: as §1

glucosamine-6-phosphate [5] = variants of: B1; experiment: self-cleavage kobs at 10000 uM GlcN6P; higher = faster cleavage; RNA array
Method in brief: as §1

glucosamine-6-phosphate [6] = variants of: B1; experiment: KM; higher = weaker cofactor use; RNA array
Method in brief: as §1

glucosamine-6-phosphate [7] = variants of: B1; experiment: self-cleavage kobs at 40 uM GlcN6P; higher = faster cleavage; RNA array
Method in brief: as §1

Row | Variant | kcat (glucosamine-6-phosphate [1]) | self-cleavage kobs at 160 uM GlcN6P (glucosamine-6-phosphate [2]) | self-cleavage kobs at 640 uM GlcN6P (glucosamine-6-phosphate [3]) | self-cleavage kobs at 2500 uM GlcN6P (glucosamine-6-phosphate [4]) | self-cleavage kobs at 10000 uM GlcN6P (glucosamine-6-phosphate [5]) | KM (glucosamine-6-phosphate [6]) | self-cleavage kobs at 40 uM GlcN6P (glucosamine-6-phosphate [7])
1 | C11U G29U | 0.000681 ± 0.00029 s⁻¹ | 5.37e-05 ± 1.3e-05 s⁻¹ | 7.49e-05 ± 1.3e-05 s⁻¹ | 0.000407 ± 6.3e-05 s⁻¹ | 0.000463 ± 6.1e-05 s⁻¹ | – | –
2 | A12C A52U | 0.000397 ± 5.1e-05 s⁻¹ | – | 8.66e-05 ± 8.4e-06 s⁻¹ | 0.000188 ± 1.7e-05 s⁻¹ | 0.000329 ± 3.4e-05 s⁻¹ | 2490 ± 570 µM | –
3 | A12C G13A | 0.000473 ± 0.00016 s⁻¹ | – | 6.42e-05 ± 1.2e-05 s⁻¹ | 0.000302 ± 5.1e-05 s⁻¹ | 0.00032 ± 5.7e-05 s⁻¹ | – | –
4 | C11G A14G | 1.62e-05 ± 3.1e-06 s⁻¹ | < 1e-05 s⁻¹ | – | – | – | – | < 1e-05 s⁻¹
5 | C11U C16A | 0.000174 ± 7e-06 s⁻¹ | – | 4.38e-05 ± 1.9e-05 s⁻¹ | 0.000106 ± 2.2e-05 s⁻¹ | 0.000145 ± 2.9e-05 s⁻¹ | 1760 ± 190 µM | –
6 | C11U C16G | 0.000546 ± 4.2e-05 s⁻¹ | – | 0.000104 ± 1.9e-05 s⁻¹ | 0.000258 ± 4.8e-05 s⁻¹ | 0.000423 ± 5.7e-05 s⁻¹ | 2850 ± 410 µM | –
7 | A12C C16A | 0.00127 ± 0.00038 s⁻¹ | 6.12e-05 ± 1.6e-05 s⁻¹ | 0.000172 ± 2.7e-05 s⁻¹ | 0.000339 ± 5.1e-05 s⁻¹ | 0.000927 ± 9.9e-05 s⁻¹ | 4920 ± 2400 µM | –
8 | C11G G66A | < 1e-05 s⁻¹ | < 1e-05 s⁻¹ | < 1e-05 s⁻¹ | – | < 1e-05 s⁻¹ | – | < 1e-05 s⁻¹
9 | C11G A33U | < 1e-05 s⁻¹ | < 1e-05 s⁻¹ | – | < 1e-05 s⁻¹ | – | – | –
10 | C11U U45G | 0.000317 ± 6.8e-05 s⁻¹ | – | – | 0.000172 ± 6.6e-05 s⁻¹ | 0.000222 ± 4.3e-05 s⁻¹ | – | –
11 | C11U G40A | 0.000548 ± 0.00025 s⁻¹ | – | 8.42e-05 ± 2.2e-05 s⁻¹ | 0.000128 ± 3e-05 s⁻¹ | 0.000374 ± 6.8e-05 s⁻¹ | – | –
12 | C11U G13U | 6.21e-05 ± 5.4e-06 s⁻¹ | – | – | 4.88e-05 ± 9.5e-06 s⁻¹ | 5.47e-05 ± 8.2e-06 s⁻¹ | 1020 ± 420 µM | –
13 | C11A U45A | 0.000361 ± 6.9e-05 s⁻¹ | – | 5.63e-05 ± 1.2e-05 s⁻¹ | 0.000214 ± 3.6e-05 s⁻¹ | 0.000262 ± 3.8e-05 s⁻¹ | 3010 ± 1100 µM | –
14 | C11U C50G C58A | 0.000158 ± 1.6e-05 s⁻¹ | 0.00015 ± 1.7e-05 s⁻¹ | 0.000189 ± 3e-05 s⁻¹ | 0.000242 ± 0.00011 s⁻¹ | 0.000135 ± 2.2e-05 s⁻¹ | – | 0.000112 ± 3.6e-05 s⁻¹
15 | C11A U69C | 6.61e-05 ± 1e-05 s⁻¹ | – | 7.71e-05 ± 3.5e-05 s⁻¹ | 7.67e-05 ± 1.5e-05 s⁻¹ | 4.97e-05 ± 1.6e-05 s⁻¹ | – | –
16 | A12C G38C | 1.42e-05 ± 5.2e-06 s⁻¹ | – | – | – | – | – | –
17 | A12C G38U | < 1e-05 s⁻¹ | – | – | – | – | 1280 ± 390 µM | –

Row | Variant | kcat (glucosamine-6-phosphate [1]) | self-cleavage kobs at 160 uM GlcN6P (glucosamine-6-phosphate [2]) | self-cleavage kobs at 640 uM GlcN6P (glucosamine-6-phosphate [3]) | self-cleavage kobs at 2500 uM GlcN6P (glucosamine-6-phosphate [4]) | self-cleavage kobs at 10000 uM GlcN6P (glucosamine-6-phosphate [5]) | KM (glucosamine-6-phosphate [6]) | self-cleavage kobs at 40 uM GlcN6P (glucosamine-6-phosphate [7])
18 | A12C | 0.042 ± 0.0066 s⁻¹ | 0.00261 ± 0.00016 s⁻¹ | 0.00858 ± 0.00027 s⁻¹ | 0.0195 ± 0.00085 s⁻¹ | 0.0393 ± 0.0013 s⁻¹ | 2170 ± 410 µM | 0.000794 ± 1.3e-05 s⁻¹
19 | C11U A15C | 0.000738 ± 0.00012 s⁻¹ | 2.57e-05 ± 1.1e-05 s⁻¹ | 0.000194 ± 2.9e-05 s⁻¹ | 0.000368 ± 6.1e-05 s⁻¹ | 0.000585 ± 4.9e-05 s⁻¹ | 2490 ± 850 µM | –
20 | C11U U30C | 0.000527 ± 0.00014 s⁻¹ | 5.41e-05 ± 2.1e-05 s⁻¹ | 9.85e-05 ± 1.3e-05 s⁻¹ | 0.000213 ± 4.9e-05 s⁻¹ | 0.000465 ± 9.9e-05 s⁻¹ | 2780 ± 1100 µM | –
21 | C11U A14G | 0.0102 ± 0.0018 s⁻¹ | 0.000583 ± 0.00013 s⁻¹ | 0.00207 ± 0.0003 s⁻¹ | 0.00674 ± 0.0012 s⁻¹ | 0.00811 ± 0.001 s⁻¹ | 2230 ± 580 µM | 0.000229 ± 4e-05 s⁻¹
22 | A12C C70U C71U | 0.000174 ± 1.1e-05 s⁻¹ | – | 6.04e-05 ± 1.5e-05 s⁻¹ | – | 0.000154 ± 2.8e-05 s⁻¹ | 1270 ± 200 µM | –
23 | A12C G13U C71G | 1.5e-05 ± 5.4e-06 s⁻¹ | – | – | – | – | – | –
24 | A12C A14U | 0.000416 ± 3.2e-05 s⁻¹ | 3.61e-05 ± 9.3e-06 s⁻¹ | 9.07e-05 ± 1e-05 s⁻¹ | 0.000202 ± 2.4e-05 s⁻¹ | 0.000348 ± 2.9e-05 s⁻¹ | 2270 ± 350 µM | –
25 | C11U C70A | 5.41e-05 ± 1e-05 s⁻¹ | – | 8.46e-05 ± 1.3e-05 s⁻¹ | 5.81e-05 ± 9.9e-06 s⁻¹ | 4.63e-05 ± 6.2e-06 s⁻¹ | – | –
26 | A12C A15U | 0.00259 ± 0.00075 s⁻¹ | 0.000208 ± 3.6e-05 s⁻¹ | 0.00126 ± 0.0002 s⁻¹ | 0.0012 ± 0.00021 s⁻¹ | 0.00271 ± 0.00031 s⁻¹ | 1430 ± 600 µM | 7.96e-05 ± 8.9e-06 s⁻¹
27 | A12C A15C | 0.00209 ± 0.00064 s⁻¹ | 0.000151 ± 2.5e-05 s⁻¹ | 0.000451 ± 9e-05 s⁻¹ | 0.000976 ± 0.00019 s⁻¹ | 0.00216 ± 0.00038 s⁻¹ | 2000 ± 880 µM | 6.78e-05 ± 1.4e-05 s⁻¹
28 | A12C A39G | 0.0192 ± 0.0069 s⁻¹ | 0.00113 ± 0.00026 s⁻¹ | 0.00513 ± 0.0012 s⁻¹ | 0.00799 ± 0.0015 s⁻¹ | 0.0245 ± 0.0049 s⁻¹ | 2230 ± 1000 µM | 0.000367 ± 4.7e-05 s⁻¹
29 | C11A U54G | 0.000149 ± 2.7e-05 s⁻¹ | – | – | 7.77e-05 ± 1.3e-05 s⁻¹ | 0.000123 ± 1.4e-05 s⁻¹ | – | –
30 | C11U G38A | < 1e-05 s⁻¹ | < 1e-05 s⁻¹ | – | – | < 1e-05 s⁻¹ | – | < 1e-05 s⁻¹
31 | C11U G38C | < 1e-05 s⁻¹ | – | < 1e-05 s⁻¹ | < 1e-05 s⁻¹ | – | – | –
32 | A12C C58A | 0.000734 ± 2.1e-05 s⁻¹ | – | – | 0.000104 ± 1.8e-05 s⁻¹ | 0.000291 ± 4.6e-05 s⁻¹ | – | –
33 | A12C C58U | 0.000159 ± 1.6e-05 s⁻¹ | – | – | 4.66e-05 ± 9.5e-06 s⁻¹ | 9.68e-05 ± 1.2e-05 s⁻¹ | 6360 ± 1200 µM | –
